From patent publication US20200190143A1 come the findings set out here.

Assay [1] concerns the target fibroblast growth factor receptor on fibroblasts. Description: binding to fibroblasts as in Example 3-1; peptide density 0.1 peptides/µm^2.
Assay [2] shares this target. Description: binding to fibroblasts as in Example 3-1; peptide density 2 peptides/µm^2; reference set to 10.
The target is the same in assay [3]. Description: capsule and fibroblasts cultured together at 4° C. for 1 hour.
For assay [4] the target is unchanged. Description: flow cytometry (FACS), fluorescence immunoassay, on fibroblasts.
The target of assay [5] is melanocortin receptor on melanocytes. The assay is described as follows: interference with alpha-MSH binding to melanocytes as in Example 4-1; peptide density 7 peptides/µm^2.
In assay [6] the target is fibroblast growth factor receptor on fibroblasts. The assay is described as follows: binding to fibroblasts as in Example 3-1; peptide density 7 peptides/µm^2.
Assay [7] concerns the target melanocortin receptor on melanocytes. Description: interference with alpha-MSH binding to melanocytes as in Example 4-1; peptide density 0.1 peptides/µm^2.
The target is the same in assay [8]. The assay is described as follows: interference with alpha-MSH binding to melanocytes as in Example 4-1; peptide density 10 peptides/µm^2.
Assay [9] concerns the target fibroblast growth factor receptor on fibroblasts. Description: binding to fibroblasts as in Example 3-1; peptide density 0.05 peptides/µm^2.
Assay [10] has the same target. The assay is described as follows: binding to fibroblasts as in Example 3-1; peptide density 10 peptides/µm^2.
In assay [11] the target is melanocortin receptor on melanocytes. Description: interference with alpha-MSH binding to melanocytes as in Example 4-1; peptide density 10.5 peptides/µm^2.
In assay [12] the target is fibroblast growth factor receptor on fibroblasts. Description: binding to fibroblasts as in Example 3-1; peptide density 10.5 peptides/µm^2.
Assay [13] deals with melanocortin receptor on melanocytes. The assay is described as follows: interference with alpha-MSH binding to melanocytes as in Example 4-1; peptide density 0.05 peptides/µm^2.
The target is the same in assay [14]. The assay is described as follows: interference with alpha-MSH binding to melanocytes as in Example 4-1; peptide density 2 peptides/µm^2; reference set to 10.
Assay [15] has the same target. Description: flow cytometry (FACS), fluorescence immunoassay, on melanocytes.
Assay [16] has the same target. The assay is described as follows: binding of alpha-MSH to melanocytes after treatment with 10 µM capsule 2; competitor alpha-MSH.
In assay [17] the target is integrin receptor (beta-1 family) on keratinocytes. The assay is described as follows: flow cytometry (FACS), fluorescence immunoassay, on keratinocytes. In general terms: In flow cytometry, cells or beads pass a laser one at a time.

No end group written: not given here.

B1: capsule 1-2 (peptide)
peptide: AKST
modifications: not fully specified (N-terminus); printed as Ala-Lys-Ser-Thr; also: N-terminus amide-linked to microcapsule surface carboxyl (EDAC/NHS)
Turning to B1, the binding affinity to fibroblasts, relative (capsule 1-3 = 10) (relative to capsule 1-3 = 10) in [1] was found to be 7.

B2: capsule 1 (microcapsule to which the peptide of SEQ ID NO: 1 was linked) (peptide)
peptide: AKST
modifications: not fully specified (N-terminus); printed as Ala-Lys-Ser-Thr; also: N-terminus amide-linked to microcapsule surface carboxyl (EDAC/NHS)
The molecule B2 displayed a binding affinity to fibroblasts, relative (capsule 1-3 = 10) (relative to capsule 1-3 = 10) in assay [2] of 10. In addition, in assay [3], the fold binding affinity against the microcapsule to which the peptide was not linked was 4 times. This molecule yielded a binding rate in assay [4] of 75%.

B3: capsule 2-4 (peptide)
peptide: EGHKIFPSWY
modifications: not fully specified (N-terminus); printed as Glu-Gly-His-Lys-Ile-Phe-Pro-Ser-Trp-Tyr; also: N-terminus linked to microcapsule surface carboxyl (EDAC/NHS)
As for B3, the binding interference of melanocyte and alpha-MSH, relative (capsule 2-3 = 10) (relative to capsule 2-3 = 10) in assay [5] worked out at 10.

B4: capsule 1-4 (peptide)
peptide: AKST
modifications: not fully specified (N-terminus); printed as Ala-Lys-Ser-Thr; also: N-terminus amide-linked to microcapsule surface carboxyl (EDAC/NHS)
B4 displayed a binding affinity to fibroblasts, relative (capsule 1-3 = 10) (relative to capsule 1-3 = 10) in assay [6] of 9.5.

B5: capsule 2-2 (peptide)
peptide: EGHKIFPSWY
modifications: not fully specified (N-terminus); printed as Glu-Gly-His-Lys-Ile-Phe-Pro-Ser-Trp-Tyr; also: N-terminus amide-linked to microcapsule surface carboxyl (EDAC/NHS)
The molecule B5 returned a binding interference of melanocyte and alpha-MSH, relative (capsule 2-3 = 10) (relative to capsule 2-3 = 10) in assay [7] of 7.5.

B6: capsule 2-5 (peptide)
peptide: EGHKIFPSWY
modifications: not fully specified (N-terminus); printed as Glu-Gly-His-Lys-Ile-Phe-Pro-Ser-Trp-Tyr; also: N-terminus linked to microcapsule surface carboxyl (EDAC/NHS)
On to B6, for which the binding interference of melanocyte and alpha-MSH, relative (capsule 2-3 = 10) (relative to capsule 2-3 = 10) in [8] was 7.

B7: capsule 1-1 (peptide)
peptide: AKST
modifications: not fully specified (N-terminus); printed as Ala-Lys-Ser-Thr; also: N-terminus amide-linked to microcapsule surface carboxyl (EDAC/NHS)
With B7, the binding affinity to fibroblasts, relative (capsule 1-3 = 10) (relative to capsule 1-3 = 10) in [9] is 2.

B8: capsule 1-5 (peptide)
peptide: AKST
modifications: not fully specified (N-terminus); printed as Ala-Lys-Ser-Thr; also: N-terminus amide-linked to microcapsule surface carboxyl (EDAC/NHS)
The molecule B8 showed a binding affinity to fibroblasts, relative (capsule 1-3 = 10) (relative to capsule 1-3 = 10) in assay [10] of 7.5.

B9: capsule 2-6 (peptide)
peptide: EGHKIFPSWY
modifications: not fully specified (N-terminus); printed as Glu-Gly-His-Lys-Ile-Phe-Pro-Ser-Trp-Tyr; also: N-terminus linked to microcapsule surface carboxyl (EDAC/NHS)
The molecule B9 had a binding interference of melanocyte and alpha-MSH, relative (capsule 2-3 = 10) (relative to capsule 2-3 = 10) in assay [11] of 3.

B10: capsule 1-6 (peptide)
peptide: AKST
modifications: not fully specified (N-terminus); printed as Ala-Lys-Ser-Thr; also: N-terminus amide-linked to microcapsule surface carboxyl (EDAC/NHS)
B10 displayed a binding affinity to fibroblasts, relative (capsule 1-3 = 10) (relative to capsule 1-3 = 10) in [12] of 3.5.

B11: capsule 2-1 (peptide)
peptide: EGHKIFPSWY
modifications: not fully specified (N-terminus); printed as Glu-Gly-His-Lys-Ile-Phe-Pro-Ser-Trp-Tyr; also: N-terminus amide-linked to microcapsule surface carboxyl (EDAC/NHS)
The molecule B11 came in with a binding interference of melanocyte and alpha-MSH, relative (capsule 2-3 = 10) (relative to capsule 2-3 = 10) in assay [13] of 3.

B12: capsule 2 (microcapsule to which the peptide of SEQ ID NO: 2 was linked) (peptide)
peptide: EGHKIFPSWY
modifications: not fully specified (N-terminus); printed as Glu-Gly-His-Lys-Ile-Phe-Pro-Ser-Trp-Tyr; also: N-terminus amide-linked to microcapsule surface carboxyl (EDAC/NHS)
Turning to B12, in assay [14], the binding interference of melanocyte and alpha-MSH, relative (capsule 2-3 = 10) (relative to capsule 2-3 = 10) turned out to be 10. Also, in assay [15], the binding affinity (binding rate) came to 70%. For the same molecule, the percent reduction of the binding of melanocyte and alpha-MSH in [16] is 95%.

B13: capsule 3 (microcapsule to which the peptide of SEQ ID NO: 3 was linked) (peptide)
peptide: ADGSP
modifications: not fully specified (N-terminus); printed as Ala-Asp-Gly-Ser-Pro; also: N-terminus linked to microcapsule surface carboxyl (EDAC/NHS)
The molecule B13 had a binding rate in assay [17] of 85%.
